Measurements as given in article PMC11758712.

Tests used:
[1] = molecular target: monomeric ACE2 (a.a 19-611), C-terminally His-tagged (human) (UniProt Q9BYF1); assay: mass photometry
[2] = molecular target: HEK-derived SARS-CoV-2 Wuhan-Hu-1 spike receptor-binding domain (RBDHEK) (SARS-CoV-2 (Wuhan-Hu-1)) (UniProt P0DTC2); assay: mass photometry

Chain of monomeric ACE2 (a.a 19-611), C-terminally His-tagged (human) (Q9BYF1 19-611): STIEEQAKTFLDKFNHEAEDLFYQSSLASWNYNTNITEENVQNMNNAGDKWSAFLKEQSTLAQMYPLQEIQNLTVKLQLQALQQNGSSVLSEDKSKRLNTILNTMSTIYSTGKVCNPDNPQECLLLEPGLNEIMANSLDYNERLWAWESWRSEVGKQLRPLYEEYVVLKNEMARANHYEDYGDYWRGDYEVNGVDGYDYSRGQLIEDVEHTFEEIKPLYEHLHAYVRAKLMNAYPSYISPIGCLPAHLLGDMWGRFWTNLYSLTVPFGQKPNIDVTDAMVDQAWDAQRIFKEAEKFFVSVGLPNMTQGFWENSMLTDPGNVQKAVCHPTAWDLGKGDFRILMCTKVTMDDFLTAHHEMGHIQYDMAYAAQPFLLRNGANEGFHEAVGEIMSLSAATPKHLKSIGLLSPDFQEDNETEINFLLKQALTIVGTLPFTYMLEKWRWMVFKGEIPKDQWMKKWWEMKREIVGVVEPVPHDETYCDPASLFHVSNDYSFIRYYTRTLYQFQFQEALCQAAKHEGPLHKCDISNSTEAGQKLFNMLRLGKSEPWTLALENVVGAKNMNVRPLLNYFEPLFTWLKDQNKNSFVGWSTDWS

Work on “HEK-derived SARS-CoV-2 Wuhan-Hu-1 spike receptor-binding domain (RBDHEK) (from UniProt P0DTC2 319-541) (domain or fragment)” yielded a binding occupancy [1] of 33%, a percent dimeric species [2] of 19.6% and a stoichiometry N [2] of 2.
